Results: article PMC4740875, “Sequential domain assembly of ribosomal protein S3 drives 40S subunit maturation” (Nature Communications, 2016)
Each block holds one binder with its values, some of them ahead of it.

B3: full-length Yar1 (Yar1-FL), SAXS sample (natural protein, S. cerevisiae, UniProt P46683 1-200, looked up)
chain: MGLHSEPLDQEDQDTIILDARAGDLDSLKDIFTTLVSPELLSTCKESESDSTALHMAAANGHIETVRYILETVSRANSAEDLKAFVNEVNKTGNTALHWASLNGKLDVVKLLCDEYEADPFIRNKFGHDAIFEAENSGKEEVETYFLKKYDVEPEDDEEDTQTEGKNSVQITKGTEIEQVTKEATEALREETEKLNINKD
notes: Yar1, ankyrin-repeat protein, S. cerevisiae, full-length; modelled as Yar1 (1-214 including tag; 14 N-terminal residues from the His-tag); not shown: His-tag, N-terminal, kept
B6: full-length Rps3 (ribosomal protein S3), SAXS sample (natural protein, S. cerevisiae, UniProt P05750 1-240, looked up)
chain: MVALISKKRKLVADGVFYAELNEFFTRELAEEGYSGVEVRVTPTKTEVIIRATRTQDVLGENGRRINELTLLVQKRFKYAPGTIVLYAERVQDRGLSAVAQAESMKFKLLNGLAIRRAAYGVVRYVMESGAKGCEVVVSGKLRAARAKAMKFADGFLIHSGQPVNDFIDTATRHVLMRQGVLGIKVKIMRDPAKSRTGPKALPDAVTIIEPKEEEPILAPSVKDYRPAEETEAQAEPVEA
notes: Rps3, S. cerevisiae, full-length; modelled as Rps3 (1-249 including tag); How the SAXS samples were produced is not described; the methods describe His6-tagged proteins from E. coli BL21 (DE3) Rosetta Star in general; also called r-protein S3

Assays:
His6-Rps3 [1] = biological target: T1, His6-Rps3 (S. cerevisiae, UniProt P05750 1-240); assay: pull-down; in vitro competition: purified His6-Rps3/Yar1 complex immobilized on Ni-NTA agarose, incubated with buffer or an ∼6-fold molar excess (over Rps3) of purified Ltv1-Flag and/or Enp1-FPA; supernatants and eluates by Coomassie or western blot; details: both partners purified
T1 construct: Rps3, S. cerevisiae; expressed from pETDuet-1; source: E. coli BL21 (DE3) Rosetta Star, purified (Ni-NTA agarose) in complex with Yar1 or with Ltv1-Flag; not shown: His6, N-terminal, kept
T1 sequence (looked up): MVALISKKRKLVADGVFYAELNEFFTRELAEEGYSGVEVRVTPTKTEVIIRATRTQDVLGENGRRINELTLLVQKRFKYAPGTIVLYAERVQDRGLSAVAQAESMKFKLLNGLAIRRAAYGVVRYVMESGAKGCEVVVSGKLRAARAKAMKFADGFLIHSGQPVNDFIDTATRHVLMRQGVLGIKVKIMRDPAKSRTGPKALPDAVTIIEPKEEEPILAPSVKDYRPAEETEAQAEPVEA

His6-Rps3 [2] = biological target: T1, His6-Rps3; assay: pull-down; in vitro competition: purified His6-Rps3/Ltv1-Flag complex immobilized on Ni-NTA agarose, incubated with buffer or an ∼1.5-fold or 6-fold molar excess of purified Flag-Yar1; eluates and supernatants by Coomassie or western blot; details: both partners purified
[3] = biological target: B6; assay: SAXS; small-angle X-ray scattering in solution, direct injection or size exclusion separation before data collection; Tris-HCl 50 mM and NaCl 200 mM, pH 7.5; Rps3 constructs measured in complex with Yar1 constructs; details: both partners purified
[4] = biological target: B3; assay: as above; details: both partners purified
Yar1 core (8-153) = biological target: T2, Yar1 core (8-153) (S. cerevisiae, UniProt P46683 8-153); assay: as above; details: both partners purified
T2 construct: Yar1, S. cerevisiae, structural core lacking the N- and C-terminal extensions, residues 8-153; also called Yar1 structural core; Yar1(8-153)
T2 sequence (looked up): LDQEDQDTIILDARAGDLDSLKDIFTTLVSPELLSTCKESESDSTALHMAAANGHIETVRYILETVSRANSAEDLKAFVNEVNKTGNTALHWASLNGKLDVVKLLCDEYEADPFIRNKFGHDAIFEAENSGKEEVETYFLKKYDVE

[5] = biological target: T3, Enp1-Flag-TEV-ProteinA (Enp1-FPA) (S. cerevisiae, UniProt P38333 1-483); assay: pull-down; in vitro competition: purified His6-Rps3/Yar1 complex immobilized on Ni-NTA agarose, incubated with buffer or an ∼6-fold molar excess (over Rps3) of purified Ltv1-Flag and/or Enp1-FPA; supernatants and eluates by Coomassie or western blot; details: both partners purified
T3 construct: Enp1, S. cerevisiae; A TEV site lies between Flag and Protein A; expressed from pET15b; source: E. coli, purified (anti-Flag agarose); not shown: Flag, C-terminal, kept; Protein A, C-terminal, kept
T3 sequence (looked up): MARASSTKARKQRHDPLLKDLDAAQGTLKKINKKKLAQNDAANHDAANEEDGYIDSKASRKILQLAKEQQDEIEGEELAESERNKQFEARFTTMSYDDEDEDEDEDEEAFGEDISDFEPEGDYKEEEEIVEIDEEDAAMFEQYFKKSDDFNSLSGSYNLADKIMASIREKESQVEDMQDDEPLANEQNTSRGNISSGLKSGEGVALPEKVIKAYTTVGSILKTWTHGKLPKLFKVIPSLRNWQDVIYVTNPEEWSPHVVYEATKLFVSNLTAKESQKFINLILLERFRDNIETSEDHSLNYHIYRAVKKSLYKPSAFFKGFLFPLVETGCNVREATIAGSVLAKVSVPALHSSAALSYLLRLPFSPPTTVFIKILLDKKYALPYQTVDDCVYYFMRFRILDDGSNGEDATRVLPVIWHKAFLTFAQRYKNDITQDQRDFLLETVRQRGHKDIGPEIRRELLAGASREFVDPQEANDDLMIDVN

[6] = biological target: the molecule itself; assay: SAXS; small-angle X-ray scattering in solution, direct injection or size exclusion separation before data collection; Tris-HCl 50 mM and NaCl 200 mM, pH 7.5; Rps3 constructs measured in complex with Yar1 constructs

B1: Yar1 of the purified His6-Rps3/Yar1 complex (natural protein, S. cerevisiae, UniProt P46683 1-200, looked up)
chain: MGLHSEPLDQEDQDTIILDARAGDLDSLKDIFTTLVSPELLSTCKESESDSTALHMAAANGHIETVRYILETVSRANSAEDLKAFVNEVNKTGNTALHWASLNGKLDVVKLLCDEYEADPFIRNKFGHDAIFEAENSGKEEVETYFLKKYDVEPEDDEEDTQTEGKNSVQITKGTEIEQVTKEATEALREETEKLNINKD
notes: Yar1, S. cerevisiae; No tag is named for Yar1 in this complex; source: E. coli BL21 (DE3) Rosetta Star, purified in complex with His6-Rps3 (Ni-NTA agarose)
binding result (His6-Rps3 [1]): binds

B2: Flag-Yar1 (natural protein, S. cerevisiae, UniProt P46683 1-200, looked up)
chain: MGLHSEPLDQEDQDTIILDARAGDLDSLKDIFTTLVSPELLSTCKESESDSTALHMAAANGHIETVRYILETVSRANSAEDLKAFVNEVNKTGNTALHWASLNGKLDVVKLLCDEYEADPFIRNKFGHDAIFEAENSGKEEVETYFLKKYDVEPEDDEEDTQTEGKNSVQITKGTEIEQVTKEATEALREETEKLNINKD
notes: Yar1, S. cerevisiae; expressed from pETDuet-1; source: E. coli, purified (anti-Flag agarose); not shown: Flag, N-terminal, kept
binding result (His6-Rps3 [2]): binds

Binder: B3
binding result [3]: binds

Binder: B6
stoichiometry N [6]: 2

Second part, the binder after the results:

binding result [4]: binds
binding result (Yar1 core (8-153)): binds
B4: Rps3 N-domain (1-95) (domain or fragment, S. cerevisiae, UniProt P05750 1-95, looked up)
chain: MVALISKKRKLVADGVFYAELNEFFTRELAEEGYSGVEVRVTPTKTEVIIRATRTQDVLGENGRRINELTLLVQKRFKYAPGTIVLYAERVQDRG
notes: Rps3, S. cerevisiae, N-domain, residues 1-95

binding result [5]: binds
B5: Ltv1-Flag (natural protein, S. cerevisiae, UniProt P34078 1-463, looked up)
chain: MSKKFSSKNSQRYVVVHRPHDDPSFYDTDASAHVLVPVSNPNKTSPEADLRKKDVSSTKPKGRRAHVGEAALYGINFDDSEYDYTQHLKPIGLDPENSIFIASKGNEQKVEKKNIEDLFIEPKYRRDEIEKDDALPVFQRGMAKPEYLLHQQDTTDEIRGFKPDMNPALREVLEALEDEAYVVNDDVVVEDISKKTQLQGDNYGEEEKEDDIFAQLLGSGEAKDEDEFEDEFDEWDIDNVENFEDENYVKEMAQFDNIENLEDLENIDYQADVRRFQKDNSILEKHNSDDEFSNAGLDSVNPSEEEDVLGELPSIQDKSKTGKKKRKSRQKKGAMSDVSGFSMSSSAIARTETMTVLDDQYDQIINGYENYEEELEEDEEQNYQPFDMSAERSDFESMLDDFLDNYELESGGRKLAKKDKEIERLKEAADEVSKGKLSQRRNRERQEKKKLEKVTNTLSSLKF
notes: Ltv1, S. cerevisiae; expressed from pET15b; source: E. coli, purified (anti-Flag agarose); also co-expressed in E. coli with His6-Rps20 (in lysate) and purified in complex with His6-Rps3; not shown: Flag, C-terminal, kept
